According to paper PMC9756111, “Stabilization of DNA fork junctions by Smc5/6 complexes revealed by single-molecule imaging”:
Each block holds one molecule with its values, some of them ahead of it.

Tests used:
[1] = target: Smc5/6 holocomplex (budding yeast) (UniProt Q12749); assay: single-molecule dual-colour Qdot co-detection (TIRF, DNA curtains); as a1, but buffer exchanged to 250 mM NaCl: Smc5/6 diffusing freely on double-tethered dsDNA (after equilibration on DNA); cluster size by statistical inference, assuming no unlabelled complexes (lower limit)
[2] = target: Smc5/6 holocomplex (budding yeast) (UniProt Q12749); assay: single-molecule dual-colour Qdot co-detection (TIRF, DNA curtains); Smc5/6 labelled with equal amounts of Qdot605 and Qdot705 anti-HA on the same epitope in 50 mM NaCl-Buffer R; puncta counted as they first appear on double-tethered dsDNA curtains (oligomers in solution), and binding at sites of previously bound Smc5/6; cluster size by statistical inference, assuming no unlabelled complexes (lower limit)
[3] = target: T1, Smc5/6 holocomplex (Saccharomyces cerevisiae (W303 …, UniProt Q08204;Q12749;Q07913;P38632;Q05541;P43124;Q03718;P40026 …)); assay: single-molecule capture on DNA curtain (TIRF); Smc5/6 preloaded on lambda dsDNA; 16 nM oligo; 1 mM ATP; mean about 4.0 oligos per punctum; Buffer R (composition not in material); dsDNA binding in 25 mM NaCl + 25 mM KCl, capture in 50 mM NaCl + 1 mM ATP; other steps 50-250 mM NaCl; pH and temperature not given in material; settings: protein: recombinant; tags: Smc6-3xStrepII; Nse4-His-3HA (Qdot anti-HA label); copies: 1;1;1;1;1;1;1;1; label: Alexa594; single stranded
[4] = target: T1, Smc5/6 holocomplex; assay: single-molecule capture on DNA curtain (TIRF); Smc5/6 preloaded on lambda dsDNA; 1 mM ATP; mean about 3.2 per punctum; Buffer R (composition not in material); dsDNA binding in 25 mM NaCl + 25 mM KCl, capture in 50 mM NaCl + 1 mM ATP; other steps 50-250 mM NaCl; pH and temperature not given in material; settings: protein: recombinant; tags: Smc6-3xStrepII; Nse4-His-3HA (Qdot anti-HA label); copies: 1;1;1;1;1;1;1;1; label: Alexa594; 3' overhang 9 nt on strand 2

N, mean cluster size with a truncated Poissonian model (Smc5/6 per punctum) [1]: 3 to 4
fraction of puncta with both colours [1]: 67%
stoichiometry N (Smc5/6 per punctum) [1]: 2 to 3
N, mean cluster size with a truncated Poissonian model (Smc5/6 per punctum) [2]: 2 to 3
fraction of binding events from solution with both colours [2]: 39%
fraction of complexes that oligomerized on DNA (bound to previously bound Smc5/6) [2]: 10%
stoichiometry N (Smc5/6 complexes per punctum) [2]: 2
Molecule: Smc5/6 holocomplex (from UniProt Q12749 1-1114; Q08204 1-1093; Q07913 1-336; P38632 1-267; Q05541 1-303; P43124 1-402; Q03718 1-556)

B1: capture01 ssDNA-Alexa594 (ssDNA)
DNA: ATATATCTGACGCGTGCCTGGAGACTGGGGAGTAATCCTCTTGGCGGTTAAA
modifications: Alexa594 between ...GCGGTT and AAA
binding result [3]: binds

B2: capture01/capture02 dsDNA-Alexa594 (dsDNA)
DNA 1: ATATATCTGACGCGTGCCTGGAGACTGGGGAGTAATCCTCTTGGCGGTTAAA
DNA 2: TTTAACCGCCAAGAGGATTACTCCCCAGTCTCCAGGCACGCGTCAGATATATACATCCTGT
modifications: Alexa594 between ...GCGGTT and AAA of strand 1
binding result [4]: binds
